Patent US20070231899A1 (published 2007)
Blank lines part the entries; values can stand above or below the molecule they belong to.

Columns and labels:
[1] = molecular target: tissue-type plasminogen activator (t-PA) (UniProt P00750); test: surface plasmon resonance, phospholipid-associated AIIt; AIIt with t-PA
[2] = molecular target: plasmin (Homo sapiens (Human)) (UniProt P00747); test: surface plasmon resonance, phospholipid-associated AIIt; AIIt with plasmin
[3] = molecular target: [Glu]-plasminogen (human) (UniProt P00747); test: surface plasmon resonance, phospholipid-associated AIIt; AIIt with plasminogen
[4] = molecular target: plasmin (Homo sapiens (Human)) (UniProt P00747); test: surface plasmon resonance, phospholipid-associated annexin A2; phospholipid-associated annexin A2 with plasmin
[5] = molecular target: T1, Annexin II heterotetramer (AIIt) purified from bovine lung (bovine, UniProt P04272 2-339; P60902 2-97); test: iodinated A61 (0.008-5 µM) on AIIt bound to phospholipid-coated wells, gamma counting
T1 construct: also called annexin II tetramer
Description: Binding of A₆₁ to AIIt—The purified A₆₁ was iodinated according to manufacturer's procedures. Iodinated A₆₁ retained biological activity as determined by the endothelial cell proliferation assay (Kassam et al., 2001). 96-well Immulon-1 Removawell strips (Dynex Technologies) were coated with phospholipid mixture containing 3:1 ratio of phosphatidylserine to phosphatidylcholine and air-dried. The coated strips were blocked with 1% fatty acid-free bovine serum albumin (BSA) in a buffer containing 20 mM Hepes (pH 7.4), 140 mM NaCl, and 2 mM CaCl₂ (buffer A) at room temperature for 2 h. The strips were washed with buffer A and incubated with 1 μM AIIt in buffer A at room temperature for 4 h. The strips were then washed and incubated with 0.008-5 μM iodinated A₆₁ with or without 30-fold molar excess of cold A₆₁ or BSA at 4° C. After overnight incubation, the strips were washed five times with PBS, and individual wells were detached and measured for radioactivity with a γ-counter. The data shown (n=6) are the average of two separate experiments.

T1 sequence (P04272 2-339 limits assumed, chain 1 of 2): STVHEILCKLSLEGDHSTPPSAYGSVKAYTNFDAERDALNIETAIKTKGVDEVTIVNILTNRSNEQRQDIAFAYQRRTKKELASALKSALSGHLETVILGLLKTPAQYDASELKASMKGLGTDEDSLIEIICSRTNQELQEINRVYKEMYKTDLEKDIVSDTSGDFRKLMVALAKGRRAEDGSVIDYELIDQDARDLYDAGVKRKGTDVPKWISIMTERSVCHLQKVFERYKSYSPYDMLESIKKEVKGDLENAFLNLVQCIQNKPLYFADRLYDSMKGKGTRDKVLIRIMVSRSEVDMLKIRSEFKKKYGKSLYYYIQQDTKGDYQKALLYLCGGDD
T1 sequence (P60902 2-97 limits assumed, chain 2 of 2): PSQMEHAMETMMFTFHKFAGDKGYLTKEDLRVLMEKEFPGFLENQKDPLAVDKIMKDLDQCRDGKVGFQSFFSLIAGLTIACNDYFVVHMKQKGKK
[Glu]-plasminogen (human), sequence (P00747 20-810 limits assumed): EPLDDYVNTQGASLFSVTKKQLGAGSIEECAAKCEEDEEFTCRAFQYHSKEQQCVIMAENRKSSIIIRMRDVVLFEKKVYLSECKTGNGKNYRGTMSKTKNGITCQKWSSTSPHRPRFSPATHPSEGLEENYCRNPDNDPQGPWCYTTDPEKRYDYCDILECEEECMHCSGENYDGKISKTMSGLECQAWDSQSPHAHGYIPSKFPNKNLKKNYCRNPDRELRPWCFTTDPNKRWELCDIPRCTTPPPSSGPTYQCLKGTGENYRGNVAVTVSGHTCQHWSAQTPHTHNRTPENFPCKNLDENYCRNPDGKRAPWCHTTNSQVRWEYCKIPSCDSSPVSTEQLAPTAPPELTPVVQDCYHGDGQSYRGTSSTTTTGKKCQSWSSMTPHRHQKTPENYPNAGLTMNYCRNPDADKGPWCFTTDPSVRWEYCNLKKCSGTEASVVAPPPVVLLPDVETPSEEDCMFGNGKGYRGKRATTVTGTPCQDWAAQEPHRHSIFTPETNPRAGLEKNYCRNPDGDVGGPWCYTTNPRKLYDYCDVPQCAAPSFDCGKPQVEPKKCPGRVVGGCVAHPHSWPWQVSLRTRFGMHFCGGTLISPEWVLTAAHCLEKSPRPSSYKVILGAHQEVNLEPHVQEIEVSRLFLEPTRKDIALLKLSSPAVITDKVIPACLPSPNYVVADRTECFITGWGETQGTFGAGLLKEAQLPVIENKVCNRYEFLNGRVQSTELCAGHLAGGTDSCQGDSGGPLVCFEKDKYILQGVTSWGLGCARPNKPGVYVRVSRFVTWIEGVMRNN
tissue-type plasminogen activator (t-PA), sequence (P00750 36-562 limits assumed): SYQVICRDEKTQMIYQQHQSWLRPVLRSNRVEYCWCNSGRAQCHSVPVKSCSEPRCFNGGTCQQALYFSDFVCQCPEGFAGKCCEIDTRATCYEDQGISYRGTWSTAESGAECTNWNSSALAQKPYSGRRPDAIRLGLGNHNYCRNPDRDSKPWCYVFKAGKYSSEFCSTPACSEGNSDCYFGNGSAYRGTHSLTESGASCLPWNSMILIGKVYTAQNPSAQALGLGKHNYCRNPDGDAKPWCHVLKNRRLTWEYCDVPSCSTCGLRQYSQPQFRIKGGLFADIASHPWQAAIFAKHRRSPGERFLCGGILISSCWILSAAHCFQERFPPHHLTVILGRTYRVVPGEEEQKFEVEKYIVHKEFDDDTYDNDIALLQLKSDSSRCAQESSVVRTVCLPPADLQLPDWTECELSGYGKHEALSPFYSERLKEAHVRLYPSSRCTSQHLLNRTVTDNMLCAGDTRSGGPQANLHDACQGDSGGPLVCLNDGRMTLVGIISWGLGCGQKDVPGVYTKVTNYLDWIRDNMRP

- Kd [1]: 680 nM
- Kd [2]: 750 nM
- Kd [3]: 110 nM
Molecule: Annexin II heterotetramer (AIIt), phospholipid-associated, as used in the surface plasmon resonance study of Example 12 (from UniProt P07355 2-339)

- Kd [4]: 780 nM
Molecule: Annexin A2 (p36), phospholipid-associated (from UniProt P07355 2-339)

- Kd [5]: 1000 nM
B1: A61 antiangiogenic plasminogen fragment (Lys78-Lys468 of plasminogen) (other)
chain: KVYLSECKTGNGKNYRGTMSKTKNGITCQKWSSTSPHRPRFSPATHPSEGLEENYCRNPDNDPQGPWCYTTDPEKRYDYCDILECEEECMHCSGENYDGKISKTMSGLECQAWDSQSPHAHGYIPSKFPNKNLKKNYCRNPDRELRPWCFTTDPNKRWELCDIPRCTTPPPSSGPTYQCLKGTGENYRGNVAVTVSGHTCQHWSAQTPHTHNRTPENFPCKNLDENYCRNPDGKRAPWCHTTNSQVRWEYCKIPSCDSSPVSTEQLAPTAPPELTPVVQDCYHGDGQSYRGTSSTTTTGKKCQSWSSMTPHRHQKTPENYPNAGLTMNYCRNPDADKGPWCFTTDPSVRWEYCNLKKCSGTEASVVAPPPVVLLPDVETPSEEDCMFGNGK
modifications: radioiodinated (iodinated with Iodobeads) in the binding assay
notes: also called AAPF; anti-angiogenesis plasmin fragment
